Results taken from patent publication US20120231467A1.

Target: Toxin B, native full-length (270 kDa) (Clostridium difficile) (UniProt P18177)
Assay: filter
Conditions: 2NapdU at every N (replaces all dT)

UniProt P18177, sequence (P18177 2-2366): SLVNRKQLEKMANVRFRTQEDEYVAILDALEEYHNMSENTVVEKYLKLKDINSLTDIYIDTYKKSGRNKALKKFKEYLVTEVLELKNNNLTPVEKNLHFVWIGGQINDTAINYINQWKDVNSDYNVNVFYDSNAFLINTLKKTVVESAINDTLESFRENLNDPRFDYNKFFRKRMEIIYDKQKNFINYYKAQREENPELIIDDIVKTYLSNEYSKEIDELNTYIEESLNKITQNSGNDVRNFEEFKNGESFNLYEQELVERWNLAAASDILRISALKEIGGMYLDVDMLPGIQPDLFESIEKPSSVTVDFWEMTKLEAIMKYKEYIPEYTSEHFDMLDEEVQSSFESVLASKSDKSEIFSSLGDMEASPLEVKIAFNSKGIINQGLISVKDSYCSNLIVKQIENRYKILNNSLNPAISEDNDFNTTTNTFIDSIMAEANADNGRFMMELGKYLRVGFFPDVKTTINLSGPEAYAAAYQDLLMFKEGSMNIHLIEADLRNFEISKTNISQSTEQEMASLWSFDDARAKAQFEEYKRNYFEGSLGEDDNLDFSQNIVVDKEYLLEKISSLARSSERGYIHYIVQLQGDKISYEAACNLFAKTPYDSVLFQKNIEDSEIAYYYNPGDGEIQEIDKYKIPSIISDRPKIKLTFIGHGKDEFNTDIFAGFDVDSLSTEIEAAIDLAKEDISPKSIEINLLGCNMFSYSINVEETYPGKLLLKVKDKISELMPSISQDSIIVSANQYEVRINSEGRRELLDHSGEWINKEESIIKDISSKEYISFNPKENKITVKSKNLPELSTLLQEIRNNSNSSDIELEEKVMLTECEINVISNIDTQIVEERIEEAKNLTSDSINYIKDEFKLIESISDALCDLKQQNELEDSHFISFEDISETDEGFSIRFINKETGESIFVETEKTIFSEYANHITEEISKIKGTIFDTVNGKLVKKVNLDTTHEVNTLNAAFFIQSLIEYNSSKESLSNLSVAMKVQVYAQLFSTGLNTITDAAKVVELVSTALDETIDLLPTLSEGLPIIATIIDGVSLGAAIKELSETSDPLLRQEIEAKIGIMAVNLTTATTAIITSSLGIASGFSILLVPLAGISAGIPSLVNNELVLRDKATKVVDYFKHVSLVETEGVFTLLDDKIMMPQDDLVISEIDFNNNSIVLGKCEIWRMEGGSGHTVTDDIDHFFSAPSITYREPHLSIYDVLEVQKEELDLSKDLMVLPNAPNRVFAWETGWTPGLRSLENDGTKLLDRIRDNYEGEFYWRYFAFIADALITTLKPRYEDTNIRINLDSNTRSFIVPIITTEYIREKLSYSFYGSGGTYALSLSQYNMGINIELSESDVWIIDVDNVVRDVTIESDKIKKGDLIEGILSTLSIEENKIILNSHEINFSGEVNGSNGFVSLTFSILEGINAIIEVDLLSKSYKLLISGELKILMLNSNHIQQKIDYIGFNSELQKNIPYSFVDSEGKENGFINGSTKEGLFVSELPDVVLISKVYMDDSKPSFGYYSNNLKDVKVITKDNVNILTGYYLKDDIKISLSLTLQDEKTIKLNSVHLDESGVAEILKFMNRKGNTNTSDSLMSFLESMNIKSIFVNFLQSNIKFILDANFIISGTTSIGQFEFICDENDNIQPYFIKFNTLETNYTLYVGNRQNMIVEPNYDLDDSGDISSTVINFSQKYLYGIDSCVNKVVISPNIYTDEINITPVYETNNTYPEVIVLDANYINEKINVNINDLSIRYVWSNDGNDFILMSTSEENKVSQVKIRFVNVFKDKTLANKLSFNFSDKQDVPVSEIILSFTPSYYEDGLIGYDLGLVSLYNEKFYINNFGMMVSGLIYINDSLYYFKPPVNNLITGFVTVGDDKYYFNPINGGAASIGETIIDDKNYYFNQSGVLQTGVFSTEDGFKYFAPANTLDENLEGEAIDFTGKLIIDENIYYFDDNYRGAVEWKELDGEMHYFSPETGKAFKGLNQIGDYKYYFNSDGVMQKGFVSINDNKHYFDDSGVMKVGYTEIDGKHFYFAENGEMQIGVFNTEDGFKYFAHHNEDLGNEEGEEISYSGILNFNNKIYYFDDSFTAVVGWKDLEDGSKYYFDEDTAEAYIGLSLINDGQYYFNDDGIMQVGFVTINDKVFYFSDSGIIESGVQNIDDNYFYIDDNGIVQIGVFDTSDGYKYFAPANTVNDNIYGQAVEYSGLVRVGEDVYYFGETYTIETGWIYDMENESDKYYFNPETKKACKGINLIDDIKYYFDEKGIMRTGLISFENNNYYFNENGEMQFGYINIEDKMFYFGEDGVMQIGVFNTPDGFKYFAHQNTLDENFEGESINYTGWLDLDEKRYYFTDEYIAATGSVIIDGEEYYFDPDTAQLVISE

Work on “CNNNNNNACCGCNGCANGACNNNAGCGGCAGNCGNGNGNG [5566-77]” yielded a Kd of 0.23 nM.
